We go through 20 substances from patent US20160068613A1.

Sequence of human neonatal Fc-receptor (FcRn) (human) (P55899 24-297 limits assumed, chain 1 of 2): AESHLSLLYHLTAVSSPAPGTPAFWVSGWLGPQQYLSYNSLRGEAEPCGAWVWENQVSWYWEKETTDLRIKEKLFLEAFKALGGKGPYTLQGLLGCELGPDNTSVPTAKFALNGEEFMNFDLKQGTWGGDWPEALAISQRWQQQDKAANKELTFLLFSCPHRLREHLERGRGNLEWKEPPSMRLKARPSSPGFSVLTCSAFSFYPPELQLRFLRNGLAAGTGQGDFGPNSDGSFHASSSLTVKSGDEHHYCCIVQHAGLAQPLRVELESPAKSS
Sequence of human neonatal Fc-receptor (FcRn) (human) (P61769 21-119 limits assumed, chain 2 of 2, further chain): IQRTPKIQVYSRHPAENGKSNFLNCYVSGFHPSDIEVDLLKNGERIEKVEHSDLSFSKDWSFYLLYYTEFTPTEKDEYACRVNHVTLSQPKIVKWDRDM

This experiment concerns the target human neonatal Fc-receptor (FcRn) (human) (UniProt P55899). The experiment can be described thus: FcRn affinity chromatography.
For the substance “IgG1 Fc-region, symmetric, L234A/L235A/P329G + Y436A”, the FcRn-affinity column retention time was determined as 41.3 min.
In the case of “anti-HER2 antibody, symmetrically modified, D98E”, the retention time came to 46.2 min.
The same measure, in the same setting: next, “anti-HER2 antibody, symmetrically modified, E258H”: 45.6 min; “anti-HER2 antibody, symmetrically modified, E430H”: 46.4 min; “anti-HER2 antibody, symmetrically modified, K288E”: 45.2 min.
The substance “anti-HER2 antibody, symmetrically modified, K290H” yielded a retention time of 46.2 min.
On the same count and under the same terms, the figure for “anti-HER2 antibody, symmetrically modified, K317H” is 46.3 min; for “anti-HER2 antibody, symmetrically modified, L309H” it is 45.5 min.
Still for that read-out and setting: the figure for “anti-HER2 antibody, symmetrically modified, N434H” is 52 min; for “anti-HER2 antibody, symmetrically modified, Q311H” it is 46.3 min.
Same read-out and setting: next, “anti-HER2 antibody, symmetrically modified, R255D”: 41.4 min; “anti-HER2 antibody, symmetrically modified, T256H”: 46 min; anti-HER2 antibody, wild-type: 46.3 min.
Regarding “bispecific anti-VEGF/ANG2 antibody (knobs-into-holes), no FcRn affecting mutation (bispecific antibody)”, the retention time on FcRn affinity column was found to be 51.8 min.
Still for that read-out and setting: next, “bispecific anti-VEGF/ANG2 antibody (knobs-into-holes), one chain with H310A (bispecific antibody)”: 48.4 min.
For the substance “bispecific anti-VEGF/ANG2 antibody (knobs-into-holes), one chain with H310A/H433A/Y436A (bispecific antibody)”, the retention time on FcRn affinity column was 46.7 min.
Same read-out and setting: next, “bispecific anti-VEGF/ANG2 antibody (knobs-into-holes), one chain with H435A (bispecific antibody)”: 48.8 min; “bispecific anti-VEGF/ANG2 antibody (knobs-into-holes), one chain with I253A (bispecific antibody)”: 48.8 min.
On the same count and under the same terms, next, “bispecific anti-VEGF/ANG2 antibody (knobs-into-holes), one chain with L251D/L314D/L432D (bispecific antibody)”: 46.3 min; “bispecific anti-VEGF/ANG2 antibody (knobs-into-holes), one chain with M252Y/S254T/T256E (bispecific antibody)”: 56.2 min.
